Source: paper doi:10.1101/2022.04.27.489752
Blank lines part the entries; values can stand above or below the substance they belong to.

Assays:
[1] = molecular target: CapH C-terminal domain (residues 67-107) with Ile99 to Met mutation, crystallised (E. coli MS115-1); assay: crystal structure
[2] = molecular target: CapH C-terminal domain (residues 67-107), crystallised (E. coli MS115-1); assay: crystal structure
[3] = molecular target: MBP-fused CapH (I99M) mutant (E. coli MS115-1); assay: SEC-MALS

stoichiometry N [1]: 2
Substance: CapH C-terminal domain (residues 67-107) with Ile99 to Met mutation, crystallised (domain or fragment)

stoichiometry N [2]: 4
Substance: CapH C-terminal domain (residues 67-107), crystallised (domain or fragment)

stoichiometry N [3]: 2
Substance: MBP-fused CapH (I99M) mutant (natural protein)
